Measured values as given in the MegaScale stability set (Tsuboyama et al. 2023).

B1: r11_951_TrROS_Hall (parent)
chain: KKKYVIKVYFEDTGKEVEIEAESKEEALEAAKRLAEELGLKIKKVEIYP

Variants of: B1
Assay: folding stability dG (cDNA display proteolysis); higher = more stable
Conditions: PBS, room temperature

Folding stability dG [kcal/mol] of substitutions, site by site:
T13: E 4.4 | F 4.36 | G 4.52 | H 4.33 | I 4.41 | K 4.48 | L 4.29 | M 4.35 | N 4.58 | P 4.48 | Q 4.32 | R 4.66 | S 4.55 | V 4.4 | W 4.28 | Y 4.47
G14: A 4.34 | C 4.36 | D 4.37 | E 4.3 | F 4.73 | H 4.27 | I 4.58 | K 4.37 | L 4.25 | M 4.29 | N 4.43 | P 4.26 | Q 4.39 | R 4.05 | S 4.66 | T 4.41 | V 4.62 | W 4.61 | Y 4.5
K15: A 4.22 | C 3.19 | D 4.17 | E 4.35 | F 4.38 | G 4.19 | H 4.54 | I 4.22 | L 4.28 | M 4.16 | N 4.63 | P 4.29 | Q 4.27 | R 4.19 | S 4.28 | T 4.5 | V 4.37 | W 4.23 | Y 4.52
E16: A 4.49 | C 4.05 | D 4.62 | F 4.5 | G 4.35 | H 4.29 | I 4.55 | K 4.23 | L 4.29 | M 4.28 | N 4.44 | P 4.21 | Q 4.2 | R 4.22 | S 4.38 | T 4.45 | V 4.16 | W 4.48 | Y 4.45
V17: A 4.23 | C 4.25 | D 3.74 | E 4.29 | F 4.42 | G 4.05 | H 4.4 | I 4.4 | K 4.07 | L 4.42 | M 4.28 | N 3.71 | P 3.58 | Q 4 | R 4.29 | S 4.23 | T 4.29 | W 4.53 | Y 4.36
E18: A 4.14 | C 4.4 | D 4.45 | F 4.21 | G 4.06 | H 4.32 | I 4.61 | K 4.07 | L 4.46 | M 4.35 | N 4.16 | P 3.84 | Q 4.5 | R 4.19 | S 4.25 | T 4.3 | V 4.35 | W 4.3 | Y 4.12
I19: A 3.98 | C 4.1 | D 3.07 | E 3.36 | F 4.33 | G 3.31 | H 3.61 | K 3.18 | L 4.5 | M 4.5 | N 2.66 | P 0.94 | Q 3.59 | R 3.57 | S 3.56 | T 3.98 | V 4.19 | W 4.51 | Y 4.49
E20: A 4.33 | C 4.28 | D 4.27 | F 4.25 | G 4.27 | H 4.42 | I 4.38 | K 4.03 | L 4.36 | M 4.42 | N 4.22 | P 4.29 | Q 4.43 | R 4.29 | S 4.22 | T 4.4 | V 4.42 | W 4.49 | Y 4.56
A21: C 4.07 | D 3.72 | E 4.25 | F 4.23 | G 4.28 | H 4.3 | I 4.44 | K 4.29 | L 4.24 | M 4.26 | N 3.84 | P 2.03 | Q 3.77 | R 4.32 | S 4.7 | T 4.37 | V 4.45 | W 3.72 | Y 4.18
E22: A 4.36 | C 4.52 | D 4.26 | F 4.46 | G 4.32 | H 4.49 | I 4.11 | K 4.05 | L 4.26 | M 4.07 | N 4.38 | P 4.4 | Q 4.11 | R 4.18 | S 4.25 | T 4.23 | V 4.29 | W 4.64 | Y 4.52
S23: A 4.08 | C 4.05 | D 4.31 | E 4.22 | F 4.26 | G 4.06 | H 4.08 | I 4 | K 3.92 | L 4.01 | M 3.83 | N 4.38 | P 2.12 | Q 3.89 | R 4 | T 4.35 | V 3.91 | W 4.13 | Y 3.98
K24: A 4.55 | C 4.53 | D 4.37 | E 4.54 | F 4.32 | G 4.41 | H 4.45 | I 4.52 | L 4.48 | M 4.46 | N 4.46 | P 4.19 | Q 4.38 | R 4.3 | S 4.29 | T 4.57 | V 4.6 | W 4.51 | Y 4.5
E25: A 4.4 | C 4.28 | D 4.58 | F 4.34 | G 4.15 | H 4.39 | I 4.27 | K 4.22 | L 4.18 | M 4.32 | N 4.16 | P 4.16 | Q 4.18 | R 4.22 | S 4.12 | T 4.28 | V 4.36 | W 4.25 | Y 4.33
E26: A 4.66 | C 4.23 | D 4.32 | F 4.83 | G 4.58 | H 4.5 | I 4.22 | K 4.24 | L 4.46 | M 4.38 | N 4.33 | P 3.07 | Q 4.36 | R 4.39 | S 4.39 | T 4.28 | V 4.24 | W 4.92 | Y 4.83
A27: C 4.23 | D 1.49 | E 1.78 | F 3.8 | G 4.68 | H 2.78 | I 4.09 | K 1.74 | L 4.34 | M 3.71 | N 2.01 | P 2.74 | Q 2.23 | R 1.78 | S 4.03 | T 3.58 | V 4.38 | W 3.93 | Y 3.79
L28: A 4.28 | C 4.12 | D 4.11 | E 4.28 | F 4.31 | G 4.17 | H 4.44 | I 4.42 | K 4.28 | M 4.46 | N 4.33 | P 3.39 | Q 4.31 | R 4.23 | S 4.2 | T 4.16 | V 4.51 | W 4.64 | Y 4.57
E29: A 4.75 | C 4.58 | D 4.44 | G 4.29 | H 4.51 | I 4.48 | K 4.53 | L 4.94 | M 4.77 | N 4.53 | P 3.83 | Q 4.22 | R 4.64 | S 4.56 | T 4.71 | V 4.53
A30: C 4.16 | D 4.16 | E 4.31 | F 4.66 | G 4.4 | H 4.57 | I 4.49 | K 4.33 | L 4.66 | M 4.47 | N 4.41 | P 2.07 | Q 4.44 | R 4.58 | S 4.45 | T 4.38 | V 4.44
